Key:
purified protein [1] = substrate: CC1(C)S[C@@H]2[C@H](NC(=O)Cc3ccccc3)C(=O)N2[C@H]1C(=O)O; experiment: purified protein; format: biochemical, Escherichia coli; conditions: 37 °C, substrate 5-100 μM
purified protein [2] = substrate: O=C(Cc1ccccc1)Nc1ccc([N+](=O)[O-])c(C(=O)O)c1; experiment: purified protein; format: biochemical, Escherichia coli; conditions: 50 mM phosphate buffer, pH 8, 37 °C, substrate 7-2000 μM

B1: PGAEc (Escherichia coli) (protein)
chain 1: EQSSSEIKIVRDEYGMPHIYANDTWHLFYGYGYVVAQDRLFQMEMARRSTQGTVAEVLGKDFVKFDKDIRRNYWPDAIRAQIAALSPEDMSILQGYADGMNAWIDKVNTNPETLLPKQFNTFGFTPKRWEPFDVAMIFVGTMANRFSDSTSEIDNLALLTALKDKYGVSQGMAVFNQLKWLVNPSAPTTIAVQESNYPLKFNQQNSQTA
chain 2: SNMWVIGKSKAQDAKAIMVNGPQFGWYAPAYTYGIGLHGAGYDVTGNTPFAYPGLVFGHNGVISWGSTAGFGDDVDIFAERLSAEKPGYYLHNGKWVKMLSREETITVKNGQAETFTVWRTVHGNILQTDQTTQTAYAKSRAWDGKEVASLLAWTHQMKAKNWQEWTQQAAKQALTINWYYADVNGNIGYVHTGAYPDRQSGHDPRLPVPGTGKWDWKGLLPFEMNPKVYNPQSGYIANWNNSPQKDYPASDLFAFLWGGADRVTEIDRLLEQKPRLTADQAWDVIRQTSRQDLNLRLFLPTLQAATSGLTQSDPRRQLVETLTRWDGINLLNDDGKTWQQPGSAILNVWLTSMLKRTVVAAVPMPFDKWYSASGYETTQDGPTGSLNISVGAKILYEAVQGDKSPIPQAVDLFAGKPQQEVVLAALEDTWETLSKRYGNNVSNWKTPAMALTFRANNFFGVPQAAAEETRHQAEYQNRGTENDMIVFSPTTSDRPVLAWDVVAPGQSGFIAPDGTVDKHYEDQLKMYENFGRKSLWLTKQDVEAHKESQEVLHVQR
notes: mature periplasmic heterodimer cut from 846-residue preproprotein; homologous expression in E. coli RE3(pKA18), untagged
Km (purified protein [1]): 34 µM | kcat (purified protein [1]): 13.6 s⁻¹ | Km (purified protein [2]): 28 µM | Vmax (purified protein [2]): 15000 µM/min | kcat (purified protein [2]): 1.6 s⁻¹

From publication PMC2845550, “Heterologous expression of leader-less pga gene in Pichia pastoris: intracellular production of prokaryotic enzyme” (BMC Biotechnology, 2010)
